Experimental findings from patent publication US9784749 are described below.

The target in assay [1] is r244 rabbit anti-human TnTuORF antiserum. Nature of the assay: competitive radioimmunoassay with r244 and 125I-TnTuORF(Tyr) tracer.
The target is the same in assay [2]. As to the kind of experiment: competitive radioimmunoassay, TnTuORF standard against 125I-TnTuORF(Tyr) tracer for r244.

MAPEGWVIVVIS [Synthetic human Troponin T upstream open reading frame (TnTuORF) peptide] had a Cross reactivity with TnTuORF antiserum (%) in assay [1] of 100%. The same molecule displayed an ED50 in assay [2] of 0.458 µg/mL.
